Data from PMC10960667 (Molecular cell, 2024).

Molecular target: T1, recombinant full-length IκBζ wild type with 8×His-MBP tag (human, UniProt Q9BYH8-1 1-718)
T1 sequence (looked up): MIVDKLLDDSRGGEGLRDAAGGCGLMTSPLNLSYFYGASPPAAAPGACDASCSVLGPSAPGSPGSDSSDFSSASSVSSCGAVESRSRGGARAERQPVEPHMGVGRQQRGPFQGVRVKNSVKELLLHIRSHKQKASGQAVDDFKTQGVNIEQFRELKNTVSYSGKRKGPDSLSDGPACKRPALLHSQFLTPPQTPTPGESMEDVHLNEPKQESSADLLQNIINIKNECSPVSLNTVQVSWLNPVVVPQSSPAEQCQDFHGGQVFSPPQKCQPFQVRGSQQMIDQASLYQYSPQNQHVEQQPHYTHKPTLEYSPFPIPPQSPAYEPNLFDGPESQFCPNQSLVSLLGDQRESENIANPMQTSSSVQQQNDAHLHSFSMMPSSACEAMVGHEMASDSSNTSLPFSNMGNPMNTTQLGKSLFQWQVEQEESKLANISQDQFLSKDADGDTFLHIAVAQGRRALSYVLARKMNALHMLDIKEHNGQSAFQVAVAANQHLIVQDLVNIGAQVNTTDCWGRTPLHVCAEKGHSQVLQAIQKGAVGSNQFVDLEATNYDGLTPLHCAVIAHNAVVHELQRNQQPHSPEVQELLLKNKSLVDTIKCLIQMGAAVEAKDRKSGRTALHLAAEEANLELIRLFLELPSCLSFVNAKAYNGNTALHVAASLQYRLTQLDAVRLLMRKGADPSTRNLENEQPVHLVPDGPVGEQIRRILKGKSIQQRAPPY
Assay: pull-down

- binding result: binds
B1: recombinant full-length OCT6 with N-terminal 6×His-ECFP tag (natural protein, UniProt Q03052 1-451, looked up)
chain: MATTAQYLPRGPGGGAGGTGPLMHPDAAAAAAAAAAAERLHAGAAYREVQKLMHHEWLGAGAGHPVGLAHPQWLPTGGGGGGDWAGGPHLEHGKAGGGGTGRADDGGGGGGFHARLVHQGAAHAGAAWAQGSTAHHLGPAMSPSPGASGGHQPQPLGLYAQAAYPGGGGGGLAGMLAAGGGGAGPGLHHALHEDGHEAQLEPSPPPHLGAHGHAHGHAHAGGLHAAAAHLHPGAGGGGSSVGEHSDEDAPSSDDLEQFAKQFKQRRIKLGFTQADVGLALGTLYGNVFSQTTICRFEALQLSFKNMCKLKPLLNKWLEETDSSSGSPTNLDKIAAQGRKRKKRTSIEVGVKGALESHFLKCPKPSAHEITGLADSLQLEKEVVRVWFCNRRQKEKRMTPAAGAGHPPMDDVYAPGELGPGGGGASPPSAPPPPPPAALHHHHHHTLPGSVQ
